According to US20240391984A1:

What was measured:
[1] = biological target: polyclonal IgG (Gammanorm, Octapharma, Sweden); assay: SPR (Biacore 8K+), variant amine-coupled to CM5, Gammanorm as analyte, steady state fit
[2] = biological target: polyclonal IgG (Gammanorm, Octapharma, Sweden); assay: SPR (Biacore 8K+), variant amine-coupled to CM5, Gammanorm as analyte, 1:1 kinetic fit
[3] = biological target: polyclonal IgG (Gammanorm, Octapharma, Sweden); assay: SPR (Biacore 8K+), variant amine-coupled to CM5, Gammanorm as analyte, steady state fit; remark: listed apart in the source
[4] = biological target: polyclonal IgG (Gammanorm, Octapharma, Sweden); assay: SPR (Biacore 8K+), variant amine-coupled to CM5, Gammanorm as analyte, 1:1 kinetic fit; remark: listed apart in the source

Binder | Kd [1] [nM] | Kd [2] [nM] | Kd [3] [nM] | Kd [4] [nM]
pAM115 (B3 domain of Protein L; pos 10 N, pos 45 A, pos 60 N) (designed binder) PKEEVTIKANLIYADGKTQTAEFKGTFEEATAEAYRYADLLAKEAGKYTVDVADKGYTLNIKFAGKEKTPEE | 51 | 12 | – | –
pAM140 (B3 domain of Protein L; pos 10 Y, pos 45 H, pos 60 Y) (designed binder) PKEEVTIKAYLIYADGKTQTAEFKGTFEEATAEAYRYADLLAKEHGKYTVDVADKGYTLYIKFAGKEKTPEE | 96 | 27 | – | –
pAM122 (B3 domain of Protein L; pos 10 N, pos 45 H, pos 60 Y) (designed binder) PKEEVTIKANLIYADGKTQTAEFKGTFEEATAEAYRYADLLAKEHGKYTVDVADKGYTLYIKFAGKEKTPEE | 89 | 25 | – | –
pAM127 (B3 domain of Protein L; pos 10 Q, pos 45 N, pos 60 Y) (designed binder) PKEEVTIKAQLIYADGKTQTAEFKGTFEEATAEAYRYADLLAKENGKYTVDVADKGYTLYIKFAGKEKTPEE | 62 | 15 | – | –
pAM139 (B3 domain of Protein L; pos 10 Y, pos 45 H, pos 60 Q) (designed binder) PKEEVTIKAYLIYADGKTQTAEFKGTFEEATAEAYRYADLLAKEHGKYTVDVADKGYTLQIKFAGKEKTPEE | 71 | 22 | – | –
pAM128 (previously disclosed benchmarking Protein L ligand; B3 domain with pos 10 Q, pos 45 A, pos 60 Q) (designed binder) PKEEVTIKAQLIYADGKTQTAEFKGTFEEATAEAYRYADLLAKEAGKYTVDVADKGYTLQIKFAGKEKTPEE | 60 | 17 | – | –
pAM134 (B3 domain of Protein L; pos 10 Y, pos 45 H, pos 60 N) (designed binder) PKEEVTIKAYLIYADGKTQTAEFKGTFEEATAEAYRYADLLAKEHGKYTVDVADKGYTLNIKFAGKEKTPEE | 55 | 18 | – | –
pAM124 (B3 domain of Protein L; pos 10 Q, pos 45 A, pos 60 N) (designed binder) PKEEVTIKAQLIYADGKTQTAEFKGTFEEATAEAYRYADLLAKEAGKYTVDVADKGYTLNIKFAGKEKTPEE | 51 | 12 | – | –
pAM118 (B3 domain of Protein L; pos 10 N, pos 45 N, pos 60 Y) (designed binder) PKEEVTIKANLIYADGKTQTAEFKGTFEEATAEAYRYADLLAKENGKYTVDVADKGYTLYIKFAGKEKTPEE | 68 | 20 | – | –
pAM129 (B3 domain of Protein L; pos 10 Q, pos 45 A, pos 60 Y) (designed binder) PKEEVTIKAQLIYADGKTQTAEFKGTFEEATAEAYRYADLLAKEAGKYTVDVADKGYTLYIKFAGKEKTPEE | 63 | 14 | – | –
pAM116 (B3 domain of Protein L; pos 10 N, pos 45 H, pos 60 N) (designed binder) PKEEVTIKANLIYADGKTQTAEFKGTFEEATAEAYRYADLLAKEHGKYTVDVADKGYTLNIKFAGKEKTPEE | 51 | 14 | – | –
pAM138 (B3 domain of Protein L; pos 10 Y, pos 45 A, pos 60 Y) (designed binder) PKEEVTIKAYLIYADGKTQTAEFKGTFEEATAEAYRYADLLAKEAGKYTVDVADKGYTLYIKFAGKEKTPEE | 73 | 18 | – | –
pAM133 (B3 domain of Protein L; pos 10 Y, pos 45 A, pos 60 N) (designed binder) PKEEVTIKAYLIYADGKTQTAEFKGTFEEATAEAYRYADLLAKEAGKYTVDVADKGYTLNIKFAGKEKTPEE | 46 | 13 | – | –
pAM123 (B3 domain of Protein L; pos 10 Q, pos 45 N, pos 60 N) (designed binder) PKEEVTIKAQLIYADGKTQTAEFKGTFEEATAEAYRYADLLAKENGKYTVDVADKGYTLNIKFAGKEKTPEE | 51 | 13 | – | –
pAM119 (B3 domain of Protein L; pos 10 N, pos 45 A, pos 60 Q) (designed binder) PKEEVTIKANLIYADGKTQTAEFKGTFEEATAEAYRYADLLAKEAGKYTVDVADKGYTLQIKFAGKEKTPEE | 58 | 16 | – | –
pAM125 (B3 domain of Protein L; pos 10 Q, pos 45 H, pos 60 N) (designed binder) PKEEVTIKAQLIYADGKTQTAEFKGTFEEATAEAYRYADLLAKEHGKYTVDVADKGYTLNIKFAGKEKTPEE | 50 | 15 | – | –
pAM120 (B3 domain of Protein L; pos 10 N, pos 45 A, pos 60 Y) (designed binder) PKEEVTIKANLIYADGKTQTAEFKGTFEEATAEAYRYADLLAKEAGKYTVDVADKGYTLYIKFAGKEKTPEE | 69 | 19 | – | –
pAM136 (B3 domain of Protein L; pos 10 Y, pos 45 N, pos 60 Y) (designed binder) PKEEVTIKAYLIYADGKTQTAEFKGTFEEATAEAYRYADLLAKENGKYTVDVADKGYTLYIKFAGKEKTPEE | 77 | 19 | – | –
pAM130 (B3 domain of Protein L; pos 10 Q, pos 45 H, pos 60 Q) (designed binder) PKEEVTIKAQLIYADGKTQTAEFKGTFEEATAEAYRYADLLAKEHGKYTVDVADKGYTLQIKFAGKEKTPEE | 57 | 19 | – | –
pAM121 (B3 domain of Protein L; pos 10 N, pos 45 H, pos 60 Q) (designed binder) PKEEVTIKANLIYADGKTQTAEFKGTFEEATAEAYRYADLLAKEHGKYTVDVADKGYTLQIKFAGKEKTPEE | 76 | 22 | – | –
pAM132 (B3 domain of Protein L; pos 10 Y, pos 45 N, pos 60 N) (designed binder) PKEEVTIKAYLIYADGKTQTAEFKGTFEEATAEAYRYADLLAKENGKYTVDVADKGYTLNIKFAGKEKTPEE | 50 | 15 | – | –

Binder | Kd [1] [nM] | Kd [2] [nM] | Kd [3] [nM] | Kd [4] [nM]
pAM126 (B3 domain of Protein L; pos 10 Q, pos 45 N, pos 60 Q) (designed binder) PKEEVTIKAQLIYADGKTQTAEFKGTFEEATAEAYRYADLLAKENGKYTVDVADKGYTLQIKFAGKEKTPEE | 52 | 16 | – | –
pAM135 (B3 domain of Protein L; pos 10 Y, pos 45 N, pos 60 Q) (designed binder) PKEEVTIKAYLIYADGKTQTAEFKGTFEEATAEAYRYADLLAKENGKYTVDVADKGYTLQIKFAGKEKTPEE | 61 | 17 | – | –
pAM117 (B3 domain of Protein L; pos 10 N, pos 45 N, pos 60 Q) (designed binder) PKEEVTIKANLIYADGKTQTAEFKGTFEEATAEAYRYADLLAKENGKYTVDVADKGYTLQIKFAGKEKTPEE | 60 | 18 | – | –
pAM137 (B3 domain of Protein L; pos 10 Y, pos 45 A, pos 60 Q) (designed binder) PKEEVTIKAYLIYADGKTQTAEFKGTFEEATAEAYRYADLLAKEAGKYTVDVADKGYTLQIKFAGKEKTPEE | 64 | 18 | – | –
pAM131 (B3 domain of Protein L; pos 10 Q, pos 45 H, pos 60 Y) (designed binder) PKEEVTIKAQLIYADGKTQTAEFKGTFEEATAEAYRYADLLAKEHGKYTVDVADKGYTLYIKFAGKEKTPEE | 81 | 21 | – | –
pAM262 (D1 domain; N10H, N45H, N60Y) (designed binder) PKEEVTIKAHLIFADGKTQTAEFKGTFEEATAEAYRYADLLAKVHGEYTADLEDGGYTIYIKFAGKEQPGEN | – | – | 48 | 11
pAM153 (D1 domain; pos 10 N, pos 45 N, pos 60 N) (protein) PKEEVTIKANLIFADGKTQTAEFKGTFEEATAEAYRYADLLAKVNGEYTADLEDGGYTINIKFAGKEQPGEN | 32 | – | – | –
pAM179 (D1 domain; pos 10 Y, pos 45 H, pos 60 Y) (designed binder) PKEEVTIKAYLIFADGKTQTAEFKGTFEEATAEAYRYADLLAKVHGEYTADLEDGGYTIYIKFAGKEQPGEN | 75 | – | – | –
pAM166 (D1 domain; pos 10 Q, pos 45 A, pos 60 Q) (designed binder) PKEEVTIKAQLIFADGKTQTAEFKGTFEEATAEAYRYADLLAKVAGEYTADLEDGGYTIQIKFAGKEQPGEN | 41 | – | – | –
pAM244 (Protein L C2b domain; N10H, N45H, N60Q) (designed binder) PKEEVTIKVHLIFADGKTQTAEFKGTFEEATAKAYAYADLLAKEHGEYTADLEDGGYTIQIKFAGKETPETPEE | – | – | 50 | 18
pAM177 (C3 domain of Protein L; pos 10 Y, pos 39 D, pos 45 H, pos 57 Y, pos 60 Y) (designed binder) PKEEVTIKVYLIFADGKIQTAEFKGTFEEATAKAYAYADLLAKEHGEYTADLEDGGYTIYIKFAGKETPETPEE | 58 | – | – | –
pAM163 (C3 domain of Protein L; pos 10 Q, pos 45 A, pos 60 Q) (designed binder) PKEEVTIKVQLIFADGKIQTAEFKGTFEEATAKAYAYANLLAKEAGEYTADLEDGGNTIQIKFAGKETPETPEE | 188 | – | – | –
pAM150 (C3 domain of Protein L; pos 10 N, pos 45 N, pos 60 N) (protein) PKEEVTIKVNLIFADGKIQTAEFKGTFEEATAKAYAYANLLAKENGEYTADLEDGGNTINIKFAGKETPETPEE | 40 | – | – | –
pAM176 (C3 domain of Protein L; pos 10 Y, pos 45 H, pos 60 Y) (designed binder) PKEEVTIKVYLIFADGKIQTAEFKGTFEEATAKAYAYANLLAKEHGEYTADLEDGGNTIYIKFAGKETPETPEE | 137 | – | – | –
pAM164 (C3 domain of Protein L; pos 10 Q, pos 39 D, pos 45 A, pos 57 Y, pos 60 Q) (designed binder) PKEEVTIKVQLIFADGKIQTAEFKGTFEEATAKAYAYADLLAKEAGEYTADLEDGGYTIQIKFAGKETPETPEE | 39 | – | – | –
pAM261 (Protein L C4 domain; N10H, N45H, N60Y) (designed binder) PKEEVTIKVHLIFADGKTQTAEFKGTFEEATAEAYRYADLLAKVHGEYTADLEDGGYTIYIKFAGKEQPGENPG | – | – | 43 | 12
pAM152 (C4 domain of Protein L; pos 10 N, pos 45 N, pos 60 N) (protein) PKEEVTIKVNLIFADGKTQTAEFKGTFEEATAEAYRYADLLAKVNGEYTADLEDGGYTINIKFAGKEQPGENPG | 24 | – | – | –
pAM165 (C4 domain of Protein L; pos 10 Q, pos 45 A, pos 60 Q) (designed binder) PKEEVTIKVQLIFADGKTQTAEFKGTFEEATAEAYRYADLLAKVAGEYTADLEDGGYTIQIKFAGKEQPGENPG | 38 | – | – | –
pAM258 (Protein L C2b domain; N10H, N45H, N60Y) (designed binder) PKEEVTIKVHLIFADGKTQTAEFKGTFEEATAKAYAYADLLAKEHGEYTADLEDGGYTIYIKFAGKETPETPEE | – | – | 45 | 17
pAM178 (C4 domain of Protein L; pos 10 Y, pos 45 H, pos 60 Y) (designed binder) PKEEVTIKVYLIFADGKTQTAEFKGTFEEATAEAYRYADLLAKVHGEYTADLEDGGYTIYIKFAGKEQPGENPG | 45 | – | – | –
